In PMC7772773:

Target: T1, EGFP-RABL2B, Q9UNT1
T1 chain: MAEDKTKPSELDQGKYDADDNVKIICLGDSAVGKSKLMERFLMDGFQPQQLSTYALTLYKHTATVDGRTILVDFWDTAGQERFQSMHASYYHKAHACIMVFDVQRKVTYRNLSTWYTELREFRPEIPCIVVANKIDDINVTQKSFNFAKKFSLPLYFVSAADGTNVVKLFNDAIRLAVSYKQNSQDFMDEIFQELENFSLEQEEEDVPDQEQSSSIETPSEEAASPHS
Experiment: co-immunoprecipitation (IP anti-EGFP, Western blot anti-Myc), IP/input band quantitation
Details: chain shown with the change; lysates from HEK293T cells; Input is 2.5% of lysate used for IP; parent: 100

B1: CD8α-(HTR6-CT)-myc, Q9R1C8 L398A; L399A; L400A (protein)
chain: MVPEPGPVNSSTPAWGPGPPPAPGGSGWVAAALCVVIVLTAAANSLLIALICTQPALRNTSNFFLVSLFTSDLMVGLVVMPPAMLNALYGRWVLARGLCLLWTAFDVMCCSASILNLCLISLDRYLLILSPLRYKLRMTAPRALALILGAWSLAALASFLPLLLGWHELGKARTSAPGQCRLLASLPYVLVASGVTFFLPSGAICFTYCRILLAARKQAVQVASLTTGTATAGQALETLQVPRTPRPGMESADSRRLTTKHSRKALKASLTLGILLSMFFVTWLPFFVASIAQAVCDCISPGLFDVLTWLGYCNSTMNPIIYPLFMRDFKRALGRFVPCVHCPPEHRASPASPSMWTSHSGARPGLSLQQVLPLPLPPNSDSDSASGGTSGLQLTAQAAAPGEATRDPPPPTRAPTVVNFFVTDSVEPEIRQHPLGSPMN
**Q.** B1 was tested. Which percent of parent did it give?
**A.** 243%
